Results: patent publication US20200262873A1
Where a chain is given by its changes, count along the chain named.

B1: Recombinant type immunoglobulin κ light chain binding protein KBP0 (designed binder)
chain: KETPETPEEPKEEVTIKVNLIFADGKTQTATFKGTFEEATAEAYRYADLLAKVNGEYTADLEDGGYTINIKFAGKKETPETPEEPKEEVTIKVNLIFADGKTQTATFKGTFEEATAEAYRYADLLAKVNGEYTADLEDGGYTINIKFAGKKETPETPEEPKEEVTIKVNLIFADGKTQTATFKGTFEEATAEAYRYADLLAKVNGEYTADLEDGGYTINIKFAGKKETPETPEEPKEEVTIKVNLIFADGKTQTATFKGTFEEATAEAYRYADLLAKVNGEYTADLEDGGYTINIKFAGK
B2: Recombinant immunoglobulin κ light chain binding protein KBP8 (designed binder)
chain: B1 chain with E38K, E113K, E188K, E263K
B3: Recombinant immunoglobulin κ light chain binding protein KBP2 (designed binder)
chain: B1 chain with V18H, V93H, V168H, V243H
B4: Recombinant immunoglobulin κ light chain binding protein KBP4 (designed binder)
chain: B1 chain with Q28H, Q103H, Q178H, Q253H
B5: Recombinant immunoglobulin κ light chain binding protein KBP7 (designed binder)
chain: B1 chain with G34H, G109H, G184H, G259H
B6: Recombinant immunoglobulin κ light chain binding protein KBP6 (designed binder)
chain: B1 chain with F32H, F107H, F182H, F257H
B7: Recombinant immunoglobulin κ light chain binding protein KBP10 (designed binder)
chain: B1 chain with Y57H, Y132H, Y207H, Y282H
B8: Recombinant immunoglobulin κ light chain binding protein KBP1 (designed binder)
chain: B1 chain with I16H, I91H, I166H, I241H
B9: Recombinant immunoglobulin κ light chain binding protein KBP9 (designed binder)
chain: B1 chain with E42K, E117K, E192K, E267K
B10: Recombinant immunoglobulin κ light chain binding protein KBP11 (designed binder)
chain: B1 chain with I70H, I145H, I220H, I295H
B11: Recombinant immunoglobulin κ light chain binding protein KBP3 (designed binder)
chain: B1 chain with L20H, L95H, L170H, L245H
B12: Recombinant immunoglobulin κ light chain binding protein KBP5 (designed binder)
chain: B1 chain with A30H, A105H, A180H, A255H
B13: Recombinant immunoglobulin κ light chain binding protein KBP12 (designed binder)
chain: KETPETPEEPKEEVTIKVNLIFADGRTQTATFKHRFEEATAKAYRYADLLAKVQGEYTADLEDGGYTINIKFAGKKETPETPEEPKEEVTIKVNLIFADGRTQTATFKHRFEEATAKAYRYADLLAKVQGEYTADLEDGGYTINIKFAGKKETPETPEEPKEEVTIKVNLIFADGRTQTATFKHRFEEATAKAYRYADLLAKVQGEYTADLEDGGYTINIKFAGKKETPETPEEPKEEVTIKVNLIFADGRTQTATFKHRFEEATAKAYRYADLLAKVQGEYTADLEDGGYTINIKFAGK
B14: Recombinant immunoglobulin κ light chain binding protein KBP14 (designed binder)
chain: B13 chain with F32H, H34G, F107H, H109G, F182H, H184G, F257H, H259G
B15: Recombinant immunoglobulin κ light chain binding protein KBP13 (designed binder)
chain: B13 chain with H34G, Y57H, H109G, Y132H, H184G, Y207H, H259G, Y282H

Target: human IgG (IgG Sepharose 6 Fast Flow, GE Healthcare Biosciences Corp.) (human)
Assay: IgG Sepharose 6 Fast Flow column; bound at neutral pH, eluted at pH 3.0 then pH 2.5; peak area A/(A+B)

Binder	Antibody dissociation rate (%) at pH 3.0 [%]
B1	50
B2	80
B3	98
B4	95
B5	97
B6	92
B7	97
B8	95
B9	95
B10	99
B11	95
B12	92
B13	100
B14	100
B15	100
